Target: T1, mouse ADAMTS7 (Mus musculus, UniProt Q68SA9, E373Q)
T1 construct: Full-length mouse Adamts7 1-1857 (Uniprot Q68SA9, WT or E373Q catalytic mutant); expressed in transfected cells; host or cells: Human Coronary Artery Smooth Muscle Cells (HCA-SMC, Lonza), adenovirus 50 MOI
T1 sequence (Q68SA9 221-1657 E373Q): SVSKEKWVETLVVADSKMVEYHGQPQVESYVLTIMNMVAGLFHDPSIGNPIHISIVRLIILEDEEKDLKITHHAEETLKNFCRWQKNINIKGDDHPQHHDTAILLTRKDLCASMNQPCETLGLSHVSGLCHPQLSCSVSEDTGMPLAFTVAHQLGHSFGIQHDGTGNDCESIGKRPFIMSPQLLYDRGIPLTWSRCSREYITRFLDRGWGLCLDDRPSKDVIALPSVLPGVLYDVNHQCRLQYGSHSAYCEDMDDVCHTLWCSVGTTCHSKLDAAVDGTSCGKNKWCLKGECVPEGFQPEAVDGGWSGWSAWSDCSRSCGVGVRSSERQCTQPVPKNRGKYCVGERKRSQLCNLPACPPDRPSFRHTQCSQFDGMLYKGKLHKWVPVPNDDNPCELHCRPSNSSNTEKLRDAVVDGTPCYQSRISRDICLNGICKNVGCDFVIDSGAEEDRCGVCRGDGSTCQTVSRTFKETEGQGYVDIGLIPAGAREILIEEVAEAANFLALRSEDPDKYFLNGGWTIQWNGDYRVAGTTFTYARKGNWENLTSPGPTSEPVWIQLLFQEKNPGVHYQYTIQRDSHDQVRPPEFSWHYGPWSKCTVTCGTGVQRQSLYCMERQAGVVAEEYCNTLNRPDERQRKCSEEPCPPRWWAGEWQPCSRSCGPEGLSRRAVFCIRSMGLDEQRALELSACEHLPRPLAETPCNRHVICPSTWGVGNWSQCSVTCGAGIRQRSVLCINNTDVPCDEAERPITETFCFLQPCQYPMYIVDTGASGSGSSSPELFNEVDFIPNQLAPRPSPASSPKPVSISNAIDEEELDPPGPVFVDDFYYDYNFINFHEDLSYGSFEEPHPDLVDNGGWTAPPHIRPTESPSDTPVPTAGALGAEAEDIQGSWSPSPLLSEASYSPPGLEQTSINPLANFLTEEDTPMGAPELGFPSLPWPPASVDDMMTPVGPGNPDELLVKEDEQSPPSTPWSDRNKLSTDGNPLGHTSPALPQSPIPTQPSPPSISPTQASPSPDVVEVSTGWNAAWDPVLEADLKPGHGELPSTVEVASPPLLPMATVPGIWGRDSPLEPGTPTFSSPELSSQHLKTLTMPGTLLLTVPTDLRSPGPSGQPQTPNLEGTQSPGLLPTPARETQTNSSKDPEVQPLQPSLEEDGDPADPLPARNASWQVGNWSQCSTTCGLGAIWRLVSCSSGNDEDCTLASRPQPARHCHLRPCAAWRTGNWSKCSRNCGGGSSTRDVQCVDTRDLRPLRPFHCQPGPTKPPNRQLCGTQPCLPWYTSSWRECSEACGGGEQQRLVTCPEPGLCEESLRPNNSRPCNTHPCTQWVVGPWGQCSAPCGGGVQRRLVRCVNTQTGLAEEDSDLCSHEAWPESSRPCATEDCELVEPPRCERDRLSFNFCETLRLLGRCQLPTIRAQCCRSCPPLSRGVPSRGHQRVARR
Experiment: TMT10 TAILS N-terminomics, HUVEC experiment (process replicates, trypsin/AspN digest)
Assay type: cell-based, human
Conditions: HUVEC TAILS HC; log fold change of N-terminal peptide, Ad-mADAMTS7 EQ over Luc
Text: ADAMTS7 Expression, Cell Culture and Preparation of the Secreted Proteins—Full-length mouse Adamts7 1-1857 (Uniprot Q68SA9, WT or E373Q catalytic mutant) with a carboxyl terminal 3xFLAG tag was used to generate custom adenoviruses as previously described. Adeno-CMV-Luciferase (Ad-Luc) from Vector Biolabs was used as a negative control. Human Coronary Artery Smooth Muscle Cells (HCA-SMC) were obtained from Lonza and expanded in Lonza SmGM-2 media in 15 cm tissue culture plates. Twenty-four hours before media collection, near confluent plates were transduced with 50 MOI adenovirus and switched to Lonza Basal SM media with volumes of 20 ml per 15 cm plate. Expression of the Flag tagged ADAMTS7 was confirmed from the media using western blot and detected using the anti-Flag M2-HRP antibody (Sigma, A8592). Collected media was processed by adding protease inhibitors (1 mM EDTA and 1 mM PMSF) and clarified by 500 g×5 min spin at 4 C to pellet cell debris. Cell media supernatants were then passed through a 0.22 um filter and kept chilled. Processed media was then concentrated 50-100× using 3 kDa Centricon Plus-70 filter unit, spun at 3,500 g×60 min at 4 C. Approximately 10% of the processed, concentrated media was set aside for total secretome proteolytic analysis. The remaining 90% of the processed, concentrated media was buffer exchanged into 50 mM HEPES pH 8.0, 150 mM NaCl (2×50 ml) using the 3 kDa Centricon Plus-70 filter unit and concentrated to >2 mg/ml to serve as input for the TAILS experiment. Secretome and TAILS input samples were stored at −80° C.
For the first experiment, referred to as SMC1, 120 ml of media from 6×15 cm dishes was pooled from each condition (Luc, WT, EQ) and processed to produce three separate inputs for the TAILS experiment. Luc, WT and EQ inputs from the SMC1 experiment were each divided into triplicate 400 ug samples to generate technical replicate TAILS data. For the second experiment, referred to as SMC2, media was processed separately in triplicate for each condition (Luc1, Luc2, Luc3, WT1, WT2, WT3, EQ1, EQ2, EQ3) using 60 ml of media from 3×15 cm dishes for each process replicate. Inputs from the SMC2 experiment used process replicates of 300 ug each to generate TAILS data. The third experiment used input from cultured Human umbilical vein endothelial cells (HUVEC) from Lifeline Cell Technology grown in VascuLife Media and transduced in Lifeline Basal EC (+bFGF2 10 ng/ml). The HUVEC experiment used the same strategy as the SMC2 experiment, with 40 ml of media from 2×15 cm dishes for each process replicate and used 200 ug each to generate TAILS data. Inputs for process replicate experiments were restricted to the lowest concentration from the 9 parallel samples for SMC2 or HUVEC.
TMT10 isotopic labeling and negative selection of non-labeled peptides-Sample preparation was performed based on the TAILS protocol from the Overall lab with some modifications. From a single experiment, nine parallel protein samples in 50 mM HEPES pH 8.0, 150 mM NaCl were separately denatured with guanidinium chloride (Sigma, G4505) to reach a final concentration of 2.5M guanidinium chloride and 250 mM HEPES and incubated at 65° C. for 15 min. Reduction was achieved through addition of tris(2-carboxylethyl) phosphine (TCEP) at a final concentration of […] and incubated at 65° C. for 45 min. Alkylation reaction was performed with addition of iodoacetamide (IAA, Sigma, A3221) to a final concentration of 10 mM IAA for 15 min at room temperature in the dark. Following denaturation, reduction and alkylation steps, ten percent of each of the nine parallel protein samples was removed and combined to serve as a pooled reference. Isobaric tags were added to free amine groups using the TMT10plex Isobaric Mass Tagging Kit (ThermoFisher, 90113) with TMT channels randomly assigned to the nine samples and TMT 131 assigned to the pooled reference. […]

Row | logFC.mEQ.over.Luc | Substance
1 | −0.58 | AEBP1_37 (FLEGFLSELEPEPR; listed as Homo sapiens)
2 | −0.38 | EFEMP1_124 (AVAGPEMQTGR; listed as Homo sapiens)
3 | −0.34 | FBN1_29 (LEAGNVKETR; listed as Homo sapiens)
4 | −0.52 | FLNA_1285 (LTQTGGPHVKAR; listed as Homo sapiens)
5 | −0.47 | FN1_36 (MVQPQSPVAVSQSKPGCYDNGKHYQINQQWER; listed as Homo sapiens)
6 | −0.50 | FN1_40 (QSPVAVSQSKPGCYDNGKHYQINQQWER; listed as Homo sapiens)
7 | −0.43 | FN1_886 (NQESTPVVIQQETTGTPR; listed as Homo sapiens)
8 | −0.24 | FN1_1143 (LTPGVEYVYTIQVLR; listed as Homo sapiens)
9 | −0.08 | FN1_1656 (SSSPVTGYR; listed as Homo sapiens)
10 | −0.01 | HSPG2_2331 (ANLAYPAGSTQPIR; listed as Homo sapiens)
11 | −0.04 | IGFBP7_101 (AAGGPGVSGVCVCKSR; listed as Homo sapiens)
12 | −0.65 | LOXL2_37 (FQQPAPEYHQPQAPANVAKIQLR; listed as Homo sapiens)
13 | 0.03 | LOX_124 (WFQAGYSTSR; listed as Homo sapiens)
14 | −0.18 | LTBP1_393 (LTATNFR; listed as Homo sapiens)

— patent US20240368668A1, “SUBSTRATES AND BIOMARKERS OF ADAMTS7” (The Broad Institute, Inc., priority 2021, published 2024)
